# Biological target: α-subunit of the M. tuberculosis open gate 20S core particle (M. tuberculosis) (UniProt P9WHU1)
# Assay: cryo-EM structure
substance,measurement,value
α-subunit of the M. tuberculosis open gate 20S core particle (from UniProt P9WHU1 9-248) (domain or fragment),stoichiometry N,7
